According to patent US20250092136A1 (Hoffmann-La Roche, published 2025):
Residue numbers refer to the chain shown, from its start. Numbers in names are those of the source.

B1: HER2-TCB containing the parental CD3 binder P1AH4929 / CD3orig (bispecific antibody, human IgG1, kappa, L234A L235A)
heavy 1: not shown
heavy 2: not shown
light 1: EVQLLESGGGLVQPGGSLRLSCAASGFTFSSYAMNWVRQAPGKGLEWVSRIRSKYNNYATYYADSVKGRFTISRDDSKNTLYLQMNSLRAEDTAVYYCVRASNFPASYVSYFAYWGQGTLVTVSSASVAAPSVFIFPPSDEQLKSGTASVVCLLNNFYPREAKVQWKVDNALQSGNSQESVTEQDSKDSTYSLSSTLTLSKADYEKHKVYACEVTHQGLSSPVTKSFNRGEC
light 2: not shown
notes: 2+1 IgG CrossFab, inverted: VH/VL exchange in the CD3 Fab, charge modifications in the two HER2 Fabs, knob-into-hole and P329G LALA in the Fc; also called PIAH4929
B2: HER2-TCB containing the optimized CD3 binder P1AI7913 (bispecific antibody, human IgG1, kappa, L234A L235A)
heavy 1: not shown
heavy 2: not shown
light 1: B1 light 1 with S49G, I51V, S53T, Y58R, A59E, T60P
light 2: not shown
notes: 2+1 IgG CrossFab, inverted: VH/VL exchange in the CD3 Fab, charge modifications in the two HER2 Fabs, knob-into-hole and P329G LALA in the Fc; also called P1AI7913 (in TCB format)
B3: HER2-TCB containing the optimized CD3 binder P1AI7912 (bispecific antibody, human IgG1, kappa, L234A L235A)
heavy 1: not shown
heavy 2: not shown
light 1: B1 light 1 with S49G, I51V, S53T, K54T, Y58R, A59E, T60P
light 2: not shown
notes: 2+1 IgG CrossFab, inverted: VH/VL exchange in the CD3 Fab, charge modifications in the two HER2 Fabs, knob-into-hole and P329G LALA in the Fc; also called P1AI7912 (in TCB format)
B4: HER2-TCB containing the optimized CD3 binder P1AI7915 (bispecific antibody, human IgG1, kappa, L234A L235A)
heavy 1: not shown
heavy 2: not shown
light 1: B1 light 1 with S49G, I51Q, S53T, K54Q, Y58R, A59E, T60D
light 2: not shown
notes: 2+1 IgG CrossFab, inverted; also called P1AI7915 (in TCB format)

Target: T1, Biotinylated cynomolgus CD3ε stalk-Fc (knob)-Avi / CD3δ stalk-Fc (hole) (cynomolgus, biotinylated)
T1 construct: Heterodimer of CD3 epsilon and CD3 delta ectodomains fused to Fc knob/hole; also called cynomolgus CD3ε/δ; cyno CD3
Assay: SPR (Biacore T200), biotinylated CD3ε/δ-Fc on SA chip, TCB as analyte, 25 °C, 1:1 fit
Experimental: (§1) CD3 binding was investigated using surface plasmon resonance (SPR) on a Biacore T200 instrument (Cytiva). All experiments were performed at 25° C. using HEPES buffered saline (20 mM HEPES, 140 mM NaCl, 0.05% PS-20) pH 7.4. The experimental setup is schematically depicted in FIG. 3.
(§2) Biotinylated human and cynomolgus CD3ε stalk-Fc (knob)-Avi/[…] stalk-Fc (hole) (CD3E/8, see SEQ ID NOs 49 and 50 (human) and SEQ ID NOs 51 and 52 (cynomolgus)) were coupled to a Series S Sensor Chip SA (Cytiva, #29104992) according to the manufacturer's instructions. A concentration series ranging from 0.37 to 300 nM (1:3) of the TCB antibody molecules were injected with 90 s association time, followed by a buffer wash of 300 s for monitoring the dissociation phase. Bulk refractive index differences were corrected by subtracting the response obtained from a mock surface. Blank injections were subtracted (double referencing). Kinetic constants were derived using the Biacore T200 Evaluation Software (Cytiva), to fit rate equations for 1:1 Langmuir binding by numerical integration. The half-life (t_{1/2}) of the interaction was calculated using the formula t_{1/2}=ln2/koff.

T1 sequence (chain, as listed by the source mutant limits assumed, chain 1 of 2): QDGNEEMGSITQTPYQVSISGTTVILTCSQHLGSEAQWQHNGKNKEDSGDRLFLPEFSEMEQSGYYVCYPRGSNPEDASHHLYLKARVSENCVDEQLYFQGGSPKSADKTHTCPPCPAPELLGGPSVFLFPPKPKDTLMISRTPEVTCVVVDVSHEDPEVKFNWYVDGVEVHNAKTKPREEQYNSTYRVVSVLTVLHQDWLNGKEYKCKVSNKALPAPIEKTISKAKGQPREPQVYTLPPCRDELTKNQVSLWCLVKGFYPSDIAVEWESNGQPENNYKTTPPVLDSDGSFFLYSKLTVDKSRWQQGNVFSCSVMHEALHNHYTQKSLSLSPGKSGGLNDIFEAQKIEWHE
T1 sequence (chain, as listed by the source mutant limits assumed, chain 2 of 2): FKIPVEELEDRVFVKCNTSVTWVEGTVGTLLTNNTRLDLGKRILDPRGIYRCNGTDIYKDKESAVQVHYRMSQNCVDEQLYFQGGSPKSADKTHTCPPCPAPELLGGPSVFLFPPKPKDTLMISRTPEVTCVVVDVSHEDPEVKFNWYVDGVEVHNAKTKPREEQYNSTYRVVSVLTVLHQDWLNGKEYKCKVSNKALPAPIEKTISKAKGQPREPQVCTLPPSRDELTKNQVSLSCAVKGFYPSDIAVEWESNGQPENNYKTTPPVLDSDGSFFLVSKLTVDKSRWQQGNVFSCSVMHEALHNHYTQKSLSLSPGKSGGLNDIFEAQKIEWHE

**Q.** What does the source list for B1?
**A.** Kd: 0.2 nM; t1/2: 519 s

**Q.** How did the Kd turn out when B2 was run?
**A.** 1.3 nM

**Q.** And the t1/2?
**A.** 81 s

**Q.** B3 was tested. Which Kd did it give?
**A.** 11.3 nM

**Q.** What about the t1/2 of the same binder?
**A.** 11 s

**Q.** Which results are given for B4?
**A.** Kd: 9.7 nM; t1/2: 31 s

Target: T2, Biotinylated human CD3ε stalk-Fc (knob)-Avi / CD3δ stalk-Fc (hole) (human, biotinylated)
T2 construct: also called human CD3ε/δ
Assay: as above
Experimental: as §1, §2

T2 sequence (chain, as listed by the source mutant limits assumed, chain 1 of 2): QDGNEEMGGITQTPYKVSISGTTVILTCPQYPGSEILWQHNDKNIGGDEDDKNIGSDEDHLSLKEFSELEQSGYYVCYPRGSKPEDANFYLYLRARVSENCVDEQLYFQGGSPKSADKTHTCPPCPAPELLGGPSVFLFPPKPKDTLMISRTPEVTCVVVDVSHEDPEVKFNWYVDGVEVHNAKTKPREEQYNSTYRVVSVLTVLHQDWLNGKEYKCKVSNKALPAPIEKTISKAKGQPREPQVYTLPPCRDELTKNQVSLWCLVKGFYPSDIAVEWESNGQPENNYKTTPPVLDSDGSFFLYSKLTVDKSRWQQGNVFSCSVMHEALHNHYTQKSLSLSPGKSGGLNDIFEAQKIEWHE
T2 sequence (chain, as listed by the source mutant limits assumed, chain 2 of 2): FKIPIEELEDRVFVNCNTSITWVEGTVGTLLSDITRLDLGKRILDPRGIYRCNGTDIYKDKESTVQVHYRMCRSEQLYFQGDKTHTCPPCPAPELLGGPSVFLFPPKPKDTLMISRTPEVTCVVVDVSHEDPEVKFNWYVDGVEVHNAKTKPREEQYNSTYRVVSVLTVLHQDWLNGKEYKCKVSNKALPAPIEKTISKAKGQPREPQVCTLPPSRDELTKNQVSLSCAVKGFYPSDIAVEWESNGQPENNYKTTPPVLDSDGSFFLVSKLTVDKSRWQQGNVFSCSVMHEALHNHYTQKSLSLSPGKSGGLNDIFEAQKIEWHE

**Q.** What does the source list for B1?
**A.** Kd: 0.2 nM; t1/2: 529 s

**Q.** What does the source list for B2?
**A.** Kd: 1.5 nM; t1/2: 81 s

**Q.** With B3 as the binder, how does the Kd read?
**A.** 12.6 nM

**Q.** And the t1/2?
**A.** 11 s

**Q.** Which results are given for B4?
**A.** Kd: 11.5 nM; t1/2: 30 s

Target: Apolipoprotein A-1
Assay: polyreactivity ELISA, coated antigen 1 µg/ml, TCB 1 µg/ml
Experimental: (§3) Polyreactivity was tested using an ELISA-based read out. A set of different antigens depicted in Table 9 was coated on a Nunc MaxiSorp microtiter plate (Fisher Scientific) overnight at 4° C. with a concentration of 1 μg/ml in Dulbecco's phosphate buffered saline (DPBS, PAN Biotech #P04-36500) each. After washing the plate two times using PBS (Roche Diagnostics #11666789001) containing 0.1% Tween-20, plates were blocked with DPBS, 2% bovine serum albumin (BSA, Roche Diagnostics #10735108001) for 1 hour at room temperature. After washing the plate three times, the HER2 TCBs were added with a concentration of 1 μg/ml diluted in DPBS and incubated for 1 hour at room temperature. Subsequently, plates were washed three times and an anti-human IgG F(ab′)2-HRP (Jackson ImmunoResearch #109-036-006) diluted 1:5000 in PBS, 0.5% BSA, 0.05% Tween-20 was added. After incubation for 1 hour at room temperature and washing for four times, TMB substrate (Sigma-Aldrich #T0440) was added and absorption was measured at 370/492 nm.

Apolipoprotein A-1, sequence (P02647 25-267): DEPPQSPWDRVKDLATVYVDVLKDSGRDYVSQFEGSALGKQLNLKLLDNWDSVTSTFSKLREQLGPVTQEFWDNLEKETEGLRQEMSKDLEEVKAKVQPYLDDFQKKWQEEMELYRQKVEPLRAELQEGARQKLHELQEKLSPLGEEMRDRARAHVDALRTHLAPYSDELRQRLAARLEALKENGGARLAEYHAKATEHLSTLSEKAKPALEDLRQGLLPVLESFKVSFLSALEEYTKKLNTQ

**Q.** For B1, which “Absorbance (OD)” value is on record?
**A.** 0 OD

**Q.** How did the “Absorbance (OD)” value turn out when B2 was run?
**A.** 0.01 OD

**Q.** How did the “Absorbance (OD)” value turn out when B3 was run?
**A.** 0.01 OD

**Q.** How did the “Absorbance (OD)” value turn out when B4 was run?
**A.** 0.01 OD

Target: T3, Streptavidin (UniProt P22629 37-163, limits assumed)
Assay: as above
Experimental: as §3

T3 sequence (P22629 37-163 limits assumed): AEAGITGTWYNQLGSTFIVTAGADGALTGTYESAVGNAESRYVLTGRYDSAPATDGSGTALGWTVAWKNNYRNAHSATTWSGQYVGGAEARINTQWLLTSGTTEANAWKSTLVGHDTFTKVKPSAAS

**Q.** Which “Absorbance (OD)” value does the source give for B1 here?
**A.** 0 OD

**Q.** With B2 as the binder, how does the “Absorbance (OD)” value read?
**A.** 0.01 OD

**Q.** B3 was tested. Which “Absorbance (OD)” value did it give?
**A.** 0 OD

**Q.** How did the “Absorbance (OD)” value turn out when B4 was run?
**A.** 0 OD

Target: Gelatine (2%)
Assay: as above
Experimental: as §3

**Q.** B1 was tested. Which “Absorbance (OD)” value did it give?
**A.** -0.01 OD

**Q.** With B2 as the binder, how does the “Absorbance (OD)” value read?
**A.** 0.01 OD

**Q.** How did the “Absorbance (OD)” value turn out when B3 was run?
**A.** -0.01 OD

**Q.** Which “Absorbance (OD)” value does the source give for B4 here?
**A.** 0.01 OD

Target: Insulin
Assay: as above
Experimental: as §3

**Q.** With B1 as the binder, how does the “Absorbance (OD)” value read?
**A.** 0.01 OD

**Q.** For B2, which “Absorbance (OD)” value is on record?
**A.** 0.04 OD

**Q.** B3 was tested. Which “Absorbance (OD)” value did it give?
**A.** 0.02 OD

**Q.** With B4 as the binder, how does the “Absorbance (OD)” value read?
**A.** 0.04 OD

Target: HSP90
Assay: as above
Experimental: as §3

**Q.** How did the “Absorbance (OD)” value turn out when B1 was run?
**A.** 0.02 OD

**Q.** For B2, which “Absorbance (OD)” value is on record?
**A.** 0.03 OD

**Q.** With B3 as the binder, how does the “Absorbance (OD)” value read?
**A.** 0.07 OD

**Q.** Which “Absorbance (OD)” value does the source give for B4 here?
**A.** 0.07 OD

Target: human CD3ε (coated antigen of the polyreactivity ELISA) (human, UniProt P07766 23-126, limits assumed)
Assay: as above
Experimental: as §3

human CD3ε (coated antigen of the polyreactivity ELISA), sequence (P07766 23-126 limits assumed): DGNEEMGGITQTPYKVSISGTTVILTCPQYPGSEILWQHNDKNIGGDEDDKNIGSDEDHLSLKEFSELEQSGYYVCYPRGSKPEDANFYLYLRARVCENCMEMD

**Q.** B1 was tested. Which “Absorbance (OD)” value did it give?
**A.** 2.87 OD

**Q.** With B2 as the binder, how does the “Absorbance (OD)” value read?
**A.** 2.83 OD

**Q.** Which “Absorbance (OD)” value does the source give for B3 here?
**A.** 2.2 OD

**Q.** How did the “Absorbance (OD)” value turn out when B4 was run?
**A.** 2.99 OD

Target: T4, Bovine Serum Albumin (bovine, UniProt P02769 25-607)
T4 construct: also called BSA
Assay: as above
Experimental: as §3

T4 sequence (P02769 25-607 limits assumed): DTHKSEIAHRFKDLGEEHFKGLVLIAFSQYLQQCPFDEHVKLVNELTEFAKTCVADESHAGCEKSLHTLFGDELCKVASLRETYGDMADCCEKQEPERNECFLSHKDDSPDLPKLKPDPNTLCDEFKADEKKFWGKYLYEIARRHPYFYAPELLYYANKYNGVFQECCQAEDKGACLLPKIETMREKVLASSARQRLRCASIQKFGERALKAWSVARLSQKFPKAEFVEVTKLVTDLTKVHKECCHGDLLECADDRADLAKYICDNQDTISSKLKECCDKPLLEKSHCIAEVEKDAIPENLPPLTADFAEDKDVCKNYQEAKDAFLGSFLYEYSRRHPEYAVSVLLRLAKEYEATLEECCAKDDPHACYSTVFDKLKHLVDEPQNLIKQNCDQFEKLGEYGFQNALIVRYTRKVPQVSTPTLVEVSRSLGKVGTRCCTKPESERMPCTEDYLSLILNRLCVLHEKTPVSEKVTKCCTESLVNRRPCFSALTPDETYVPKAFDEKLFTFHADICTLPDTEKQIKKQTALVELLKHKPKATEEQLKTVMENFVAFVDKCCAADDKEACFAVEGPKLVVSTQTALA

**Q.** How did the “Absorbance (OD)” value turn out when B1 was run?
**A.** 0 OD

**Q.** How did the “Absorbance (OD)” value turn out when B2 was run?
**A.** 0.01 OD

**Q.** How did the “Absorbance (OD)” value turn out when B3 was run?
**A.** 0 OD

**Q.** For B4, which “Absorbance (OD)” value is on record?
**A.** 0.01 OD

Target: T5, Histone H4 aa2-24 (UniProt P62805 2-24)
T5 construct: range 2-24
Assay: as above
Experimental: as §3

**Q.** B1 was tested. Which “Absorbance (OD)” value did it give?
**A.** 0.05 OD

**Q.** B2 was tested. Which “Absorbance (OD)” value did it give?
**A.** 0.06 OD

**Q.** B3 was tested. Which “Absorbance (OD)” value did it give?
**A.** 0 OD

**Q.** B4 was tested. Which “Absorbance (OD)” value did it give?
**A.** 0.07 OD

Target: Hemocyanin
Assay: as above
Experimental: as §3

**Q.** Which “Absorbance (OD)” value does the source give for B1 here?
**A.** 0.02 OD

**Q.** How did the “Absorbance (OD)” value turn out when B2 was run?
**A.** 0.07 OD

**Q.** With B3 as the binder, how does the “Absorbance (OD)” value read?
**A.** 0.02 OD

**Q.** Which “Absorbance (OD)” value does the source give for B4 here?
**A.** 0.08 OD

Target: T3, Streptavidin
Assay: polyreactivity ELISA, coated antigen
Experimental: as §3

**Q.** Does B1 bind?
**A.** no binding (tested: 1 µg/ml)

**Q.** Does B2 bind?
**A.** no binding (tested: 1 µg/ml)

**Q.** Does B3 bind?
**A.** no binding (tested: 1 µg/ml)

**Q.** Does B4 bind?
**A.** no binding (tested: 1 µg/ml)

Target: T4, Bovine Serum Albumin
Assay: polyreactivity ELISA, coated antigen
Experimental: as §3

**Q.** Does B1 bind?
**A.** no binding (tested: 1 µg/ml)

**Q.** Does B2 bind?
**A.** no binding (tested: 1 µg/ml)

**Q.** Does B3 bind?
**A.** no binding (tested: 1 µg/ml)

**Q.** Does B4 bind?
**A.** no binding (tested: 1 µg/ml)

Target: T5, Histone H4 aa2-24
Assay: polyreactivity ELISA, coated antigen
Experimental: as §3

**Q.** Does B1 bind?
**A.** no binding (tested: 1 µg/ml)

**Q.** Does B2 bind?
**A.** no binding (tested: 1 µg/ml)

**Q.** Does B3 bind?
**A.** no binding (tested: 1 µg/ml)

**Q.** Does B4 bind?
**A.** no binding (tested: 1 µg/ml)

Target: T6, Human CD3 on Jurkat NFAT reporter cells (human, UniProt P07766 23-207)
T6 construct: CD3 complex on the cell surface; also called CD3 on Jurkat cells; CD3 antigen (expressed on Jurkat-NFAT reporter cells)
Assay: flow cytometry on CD3-expressing Jurkat NFAT reporter cells, PE-conjugated anti-human IgG Fc secondary antibody, median fluorescence intensity
Experimental: The antibody staining was performed in a 96-well round bottom plate. Therefore 200′000 cells were seeded per well.

T6 sequence (P07766 23-207 limits assumed): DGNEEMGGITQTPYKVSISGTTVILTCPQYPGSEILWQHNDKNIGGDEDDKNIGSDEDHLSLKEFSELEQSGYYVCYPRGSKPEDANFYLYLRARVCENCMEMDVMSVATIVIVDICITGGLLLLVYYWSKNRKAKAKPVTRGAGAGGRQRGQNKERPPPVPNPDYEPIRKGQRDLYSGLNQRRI

**Q.** With B1 as the binder, how does the “EC50 (read off the curve)” value read?
**A.** ~6 nM
